Laboratory results published in patent US20210196834A1.

Biological target: human SEZ6-His (soluble hSEZ6-his antigen) (human) (UniProt Q53EL9)
Test: SPR, Biacore T200, human SEZ6-His captured on anti-His chip, Fab as analyte

Chain of UniProt Q53EL9 (Q53EL9 20-925): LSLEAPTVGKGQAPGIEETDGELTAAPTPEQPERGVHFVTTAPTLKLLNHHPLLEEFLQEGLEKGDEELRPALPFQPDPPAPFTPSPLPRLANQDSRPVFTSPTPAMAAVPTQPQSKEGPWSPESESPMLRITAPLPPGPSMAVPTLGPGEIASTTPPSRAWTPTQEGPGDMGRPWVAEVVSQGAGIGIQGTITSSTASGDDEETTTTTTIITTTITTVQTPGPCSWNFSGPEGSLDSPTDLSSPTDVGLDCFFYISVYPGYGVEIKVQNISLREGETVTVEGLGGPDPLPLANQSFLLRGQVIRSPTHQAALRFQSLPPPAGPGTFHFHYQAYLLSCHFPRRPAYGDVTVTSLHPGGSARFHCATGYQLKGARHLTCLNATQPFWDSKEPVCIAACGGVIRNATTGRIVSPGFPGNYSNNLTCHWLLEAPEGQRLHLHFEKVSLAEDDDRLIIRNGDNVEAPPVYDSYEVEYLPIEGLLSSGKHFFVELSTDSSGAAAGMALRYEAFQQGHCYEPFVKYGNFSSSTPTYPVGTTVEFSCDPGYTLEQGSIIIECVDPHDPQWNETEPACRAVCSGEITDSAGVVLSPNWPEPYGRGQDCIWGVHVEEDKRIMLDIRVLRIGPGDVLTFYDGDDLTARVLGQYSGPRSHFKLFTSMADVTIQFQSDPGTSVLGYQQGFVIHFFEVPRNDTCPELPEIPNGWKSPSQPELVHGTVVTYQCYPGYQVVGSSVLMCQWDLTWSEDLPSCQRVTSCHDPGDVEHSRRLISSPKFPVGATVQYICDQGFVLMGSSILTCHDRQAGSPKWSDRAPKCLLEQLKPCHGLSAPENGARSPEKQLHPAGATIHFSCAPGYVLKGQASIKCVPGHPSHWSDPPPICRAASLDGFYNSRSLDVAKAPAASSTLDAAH

B1: MutA (S60N) Fab (Fab construct of the hSEZ6-1.ss1 antibody with the S60N mutation) (Fab, V domains shown)
VH: EVQLVQSGAEVKKPGESLKISCKGSGYSFTSSWINWVRQMPGKGLEWMGRIYPGEGDTNYNGNFEGQVTISADKSISTAYLQWSSLKASDTAMYYCTRGLVMDYWGQGTLVTVSS
VL: EIVLTQSPATLSLSPGERATLSCRASQSVDYNGISYMHWYQQKPGQAPRLLIYAASNVQSGIPARFSGSGSGTDFTLTISSLEPEDFAVYYCQQSIEDPPTFGGGTKVEIK
- Kd: 4.8 nM
- koff: 0.006 s⁻¹
- kon: 1.3e+06 M⁻¹ s⁻¹
